The source of these data is patent US20210275498A1, “IMIDAZOLYL ETHANAMIDE PENTANDIOIC ACID FOR USE IN THERAPY OF SYMPTOMS RELATED TO EXPOSURE TO LETHAL RADIATION” (priority 2018, published 2021).

What all share (type): in vivo
In data set [1] the test system is C57BL/6 mice. The data set can be described thus: ARS scoring (posture, coat, behavior) after whole-body irradiation. The arrangement: key to Supporting variable: ARS scores (trend): positive trend (descriptively) +; negative trend (descriptively) −; no difference (descriptively) 0. As to conditions: Group 6 GL (SCx1): 0.34 mg/kg SC SID Day 1, 2, 3, therapeutic, 5.8 Gy. On the procedure: Scores on a scale of 1 to 4 (minimal, mild, moderate and severe) for posture, coat, and behavior were recorded twice daily per SNBL SOP, beginning on Day −3, except on the day of scheduled necropsy when scoring occurred only once. Observations were performed by 5 individuals during the course of the study.
After Day 0, the first ARS scoring began in the morning and the second ARS scoring began 4 to 6 hours following the completion of the morning ARS scoring. On the day of scheduled necropsy, ARS scoring occurred in the morning, prior to necropsy.
Based on the ARS Scoring SNBL SOP, if the sum of the three parameter scores totaled 8 or higher, the animal was considered moribund and was euthanized with an unscheduled necropsy performed according to the moribund animal SOP.

The test system of data set [2] is C57BL/6 mice. The data set can be described thus: Body weight after whole-body irradiation (response profile analysis). Particulars: Group 6 GL (SCx1): 0.34 mg/kg SC SID Day 1, 2, 3, therapeutic, 5.8 Gy. On the procedure: Body weights were assessed twice during acclimation (including Day −3), once prior to irradiation (Day 0), and every 3 days thereafter. Terminal body weights were also collected, with the exception of Animal 4012.
The longitudinal data were analyzed taking into account the mean weight over time in each group and the covariance among the repeated measures by response profile analysis (Fitzmaurice et al., Wiley 2004, p 103-140.). The analysis was specified as a regression model with unstructured covariance to account for the correlation among repeated body weights of the same mouse and indicator variables for treatment groups and time, where the vehicle treatment was used as the reference group and Day 0 was taken as a reference for time.
The response profile analyses provide the following regression coefficients estimated by the restricted maximum likelihood (REML) method: intercept—mean body weight in the reference groups VL (POx1);2 and VH (POx1);8 at Day 0 treatment—difference between the mean body weight in the treatment groups and the vehicle groups at Day 0 time—body weight change from baseline in the reference groups treatment×time—treatment effect at each day estimated by comparison of change from baseline in the treatment groups and control groups For all regression coefficients, p-values and 95%-confidence intervals are provided. This method provides interpretable estimates, is valid if treatment groups differ at baseline, allows for arbitrary patterns in the mean body weight over time (no specific time trend e. g. linear curve assumed) and arbitrary patterns in the covariance. The analysis has certain robustness, as potential risks due to model misspecification are minimal.

Data set [3] deals with C57BL/6 mice. The data set can be described thus: Peripheral hematology after whole-body irradiation. Particulars: Group 6 GL (SCx1): 0.34 mg/kg SC SID Day 1, 2, 3, therapeutic, 5.8 Gy. The text has this:
The primary outcome of this study was mortality and secondary outcomes were changes in hematology (peripheral and bone marrow). The endpoints were chosen to follow Animal Rule requirements that state that animal study endpoint be clearly related to the clinical benefit (generally, the enhancement of survival or prevention of major morbidity). The secondary endpoints were chosen to potentially contribute to an understanding of the disease or condition and a characterization of the treatment effect.

For data set [4], the system named is C57BL/6 mice. The data set can be described thus: Gross pathology and histopathology (testes degeneration, bone marrow cellularity) after whole-body irradiation. Particulars: Day 14, insignificant (p=0.078); Group 6 GL (SCx1): 0.34 mg/kg SC SID Day 1, 2, 3, therapeutic, 5.8 Gy.
Source text: (§1) FIG. 13 Testes. (A): Percentage of severity of testes degeneration according to four categories (minimal, mild, moderate and marked) in group 2 (VL (POx1); 2), group 3 (ML (IPx2); 3), group 4 (ML (POx2); 4) and group 5 (ML (POx1); 5). (B): Percentage of severity of testes degeneration according to four categories (minimal, mild, moderate and marked) in group 2 (VL (POx1);2), 6 (GL (SCx1); 6) and 7 (M/GL (PO/SCx1); 7). (C): Percentage of severity of testes degeneration according to four categories (minimal, mild, moderate and marked) in group 8 (VH (POx1); 8 and 9 (MH (POx1); 9).
as §1, with “14 Bone marrow cellularity.” for “13 Testes.”, “bone marrow cellularity decrease” for “severity of testes degeneration”

In data set [5] the test system is C57BL/6 mice. Described as above. Also noted: key to Supporting variable: Bone marrow celluarity (trend) / Supporting variable: Testes degradation (trend): positive trend (descriptively) +; negative trend (descriptively) −; no difference (descriptively) 0.
Where [6] appears, read: Day 14 necropsy, Group 6: 5.8 Gy, subcutaneous, 0.34 mg/kg, Days 1, 2 and 3.
The mark [7] stands for this setting: Group 6 GL (SCx1): 0.34 mg/kg SC SID Day 1, 2, 3, therapeutic, 5.8 Gy.

B1: G-CSF: Neupogen (Filgrastim; Granulocyte colony-stimulating factor; G-CSF), positive control article, Amgen (protein, UniProt P09919 31-207, looked up)
Granulocyte …: TPLGPASSLPQSFLLKCLEQVRKIQGDGAALQEKLVSECATYKLCHPEELVLLGHSLGIPWAPLSSCPSQALQLAGCLSQLHSGLFLYQGLLQALEGISPELGPTLDTLQLDVADFATTIWQQMEELGMAPALQPTQGAMPAFASAFQRRAGGVLVASHLQSFLEVSYRVLRHLAQP
modifications: filgrastim
notes: Neupogen (Filgrastim; Granulocyte colony-stimulating factor; G-CSF), positive control article, Amgen
B1: the “ARS scoring for coat” value with C57BL/6 mice [1] (Day 9) is listed as “increased percentage of mild grade”. Moreover, the “ARS posture score, most frequent grade (mode)” value with C57BL/6 mice [1] (Day 15, control group 2 mild (65%)) is “normal”. The “Supporting variable: ARS scores (trend)” value in the data set on C57BL/6 mice [1] is “+”. The “Body weight: Estimate, change relative to vehicle group 2” value with C57BL/6 mice [2] (Day 0) is -0.5 g; with C57BL/6 mice [2] (Day 3), 0.3 g; in the data set on C57BL/6 mice [2] (Day 9), -0.4 g; in the data set on C57BL/6 mice [2] (Day 15), 0.4 g; with C57BL/6 mice [2] (Day 21) it was 3.3 g; with C57BL/6 mice [2] (Day 30), 0.5 g. In the data set with C57BL/6 mice [3] (Day 14), the “hemoglobin and hematocrit, red blood cells compared to control group 2” value is “increased”. In addition, the “median WBC and neutrophil count compared to control Group 2” value in the data set with C57BL/6 mice [3] (Day 30) is recorded as “trend in the increase”. Moreover, the “testes degeneration, proportion by severity category” value in the data set on C57BL/6 mice [4] is “higher proportions of testes in the minimal category”. The “gross pathology: findings not typical of acute radiation syndrome” value in the data set with C57BL/6 mice [5] (setting [6]) is “cysts in spleen were observed”. The “gross pathology: lesions typical of acute radiation syndrome (red discoloration of organs)” value with C57BL/6 mice [5] (setting [6]) is reported as “no red discoloration in the brain, testes”. In the data set on C57BL/6 mice [5] (Day 30, insignificant, Group 6 GL (SCx1): 0.34 mg/kg SC SID Day 1, 2, 3, therapeutic, 5.8 Gy), the “bone marrow cellularity decrease, category” value is “minimal category in sternum and no marked category in femur bone marrow”. Moreover, the “Supporting variable: Bone marrow celluarity (trend)” value in the data set on C57BL/6 mice [5] (setting [7]) is listed as “+”. Besides, the “Supporting variable: Testes degradation (trend)” value with C57BL/6 mice [5] (setting [7]) is recorded as “+”.
